Values joined by “and” are separate entries in the source; they are usually repeats but may differ in a detail not shown here. Equal values may be shown once.
Assays:
C57BL/6 mice, CLP sepsis [1] = settings: mouse, in vivo, 10 mg/kg
Procedure: (§1) Sepsis was induced in mice by cecal ligation and puncture (CLP) as described previously ([45], [46]). Mice were anesthetized with isoflurane to a surgical plane and placed in a supine position. CLP was performed through a midline laparotomy. The abdomen was shaved and disinfected. Through a 2 cm midline incision, the cecum was exposed and then ligated with a 4-0 silk suture 1 cm proximal from the distal cecal extremity. For 20-hour CLP experiments, the cecum was punctured twice with a 22-gauge needle. A small amount of cecal content was extruded through both holes, and the ligated cecum was returned to the peritoneal cavity. The wound was closed in layers. For 10-day sepsis survival studies, the cecum was punctured once with a 22-gauge needle. A small amount of cecal content was extruded. Mice were allocated to the vehicle and adoptive transfer of DLL4^+ neutrophils or DLL4^– neutrophils groups. Adoptive transfer mice received a retro-orbital injection of 1 × 10^6 cells per mouse DLL4^+ neutrophils or DLL4^– neutrophils in […] phosphate-buffered saline (PBS) immediately after abdominal closure in both the 20-hour experiments and the survival study. Vehicle groups received an equivalent volume of PBS, while treatment groups received NDI 10 mg/kg in […] PBS via retro-orbital injection after CLP. […]

C57BL/6 mice, CLP sepsis [2] = assay: 10-day survival, CLP mice; format: in vivo, mouse; settings: 10 mg/kg NDI
Procedure: as §1, with “CLP. This dose was chosen primarily on the basis of our laboratory’s prior experience, we have consistently used this dose in mouse CLP models with reproducible efficacy and without observable toxicity ([39], [44]). Sham-operated animals underwent a laparotomy without CLP. After closure, the mice received a subcutaneous injection of 0.5 mL of normal saline to overcome surgery-induced dehydration.” for “CLP.”
Data represented in the figures are expressed as mean ± SEM and were compared by 2-tailed Student’s t test for 2 groups or 1-way ANOVA using Student-Newman-Keuls post hoc analysis for multiple groups. Survival rates were analyzed by the Kaplan-Meier estimator and compared using a log-rank test. […]

ZBP1 = ZBP1 mRNA in lungs of CLP mice, RT-PCR; format: in vivo, mouse; settings: 20 h; for lung ZBP1 mRNA (Figure 5A): 10 mg/kg NDI retro-orbital, vs sham, individual mice, 10 mg/kg
Procedure: as §1, with “CLP. This dose was chosen primarily on the basis of our laboratory’s prior experience, we have consistently used this dose in mouse CLP models with reproducible efficacy and without observable toxicity ([39], [44]). Sham-operated animals underwent a laparotomy without CLP. After closure, the mice received a subcutaneous injection of 0.5 mL of normal saline to overcome surgery-induced dehydration. For 20-hour experiments, animals were not injected with antibiotics; however, for survival studies, animals were given 0.5 mg per kg body weight imipenem (lot 4D21K05, WG Critical Care LLC) subcutaneously in 0.5 mL saline once at the end of CLP. All mice were subcutaneously injected with a single dose of 0.1 mg/kg buprenorphine after CLP.” for “CLP.”

c-caspase-3 = assay: c/t caspase-3 (apoptosis) in PVECs cocultured with neutrophils, Western blot; format: cell-based, mouse; settings: for c/t caspase-3 (Figure 4H): 10 μM peptide, 16 h, individual replicates
Procedure: Wild-type PVECs (5 × 10^5) were cocultured with sorted DLL4^+ neutrophils (5 × 10^5) or DLL4^– neutrophils (5 × 10^5) and then treated with different dosages of peptides or 10 μM DAPT (Thermo Fisher Scientific), 10 μM NDI (GenScript), or 10 μM NDI scramble (GenScript). Notch1-knockdown PVECs (5 × 10^5) were cocultured with sorted DLL4^+ neutrophils (5 × 10^5). After 16 hours, neutrophils were washed away by PBS, and PVECs were collected for further experiments. Cell viability was evaluated by propidium iodide staining using the FITC Annexin V Apoptosis Detection Kit I (catalog 556547, BD Pharmingen). Cell death was quantified as the percentage of propidium iodide–positive cells by flow cytometry.
PVECs and lung tissue were collected in previous steps. Whole-cell proteins were extracted, and the protein concentration was measured using an ABC protein assay kit (catalog 5000002, Bio-Rad). Proteins were separated using NuPAGE 4%–12% Bis-Tris gels (Invitrogen), transferred to PVDF membranes, and immunoblotted with the antibodies indicated in the figure legends according to the manufacturer’s recommendations. The ZBP1 antibody (catalog PA5-20455; 1:1,000) used in this study was obtained from Thermo Fisher Scientific, and the c-GSDMD (catalog 10137S; 1:250), GSDMD (catalog 39754S; 1:1000), c-caspase-3 (catalog 9661L; 1:250), caspase-3 (catalog 9662S; 1:1,000), p-MLKL (catalog 37333S; 1:250), MLKL (catalog 37705S; 1:1,000), N1ICD (c-Notch1) (catalog 4147S; 1:250), and Notch1 (catalog 3608S; 1:1,000) antibodies were obtained from Cell Signaling Technology. GAPDH (catalog 60004-1-Ig; 1:10,000) and β-actin (catalog A5441, Sigma-Aldrich; 1:5,000) were obtained from ProteinTech. After the blots were incubated with primary antibodies, the membranes were washed 3 times, and the blots were subsequently incubated with the corresponding fluorescent secondary antibody (LI-COR). Bands were detected using an Odyssey FC Dual-Mode Imaging system 2800 (LI-COR).

DLL3 = DLL3 mRNA in eCIRP-treated BMDNs, qPCR; format: cell-based, mouse; settings: for DLL3 mRNA: DLL3-CIRP
Procedure: (§2) mRNA was extracted from lung tissues with TRIzol reagent (Invitrogen, Thermo Fisher Scientific). An equal amount ([…]) of mRNA was reverse-transcribed into cDNA using the reverse transcriptase enzyme (Invitrogen, Thermo Fisher Scientific). qPCR was performed from the diluted cDNA templates with forward and reverse primers (Supplemental Table 4) and SYBR Green PCR Master Mix (Applied Biosystems, Thermo Fisher Scientific) using an Applied Biosystems 7300 real-time PCR machine. Mouse β-actin served as an internal control gene for normalization. Relative expression of mRNA was represented as fold change in comparison with the sham group.
(§3) BMDNs (1 × 10^6) were treated with eCIRP (1 μg/mL) for 12 hours, and DLL1, DLL3, and DLL4 were analyzed by qPCR.

DLL4 = DLL4 mRNA in eCIRP-treated BMDNs, qPCR; format: cell-based, mouse; settings: for DLL4 mRNA: DLL4-CIRP
Procedure: as §2, §3

Q: With ECAGSPCHNGGTCEDGI [NDI] as the molecule, how does the “adverse effects” value (C57BL/6 mice, CLP sepsis [1]) read?
A: lack of observed adverse effects in treated animals

Q: And the “survival rate, 10 days” value (C57BL/6 mice, CLP sepsis [2]; N = 20, PBS-injected 15%)?
A: 75%

Q: And the “survival event code (Figure 6M)” value (C57BL/6 mice, CLP sepsis [2]; individual mice, code 0 stands at day 10, 1 at earlier days (meaning not given), 10 mg/kg)?
A: 1 and 0

Q: And the “survival time (Figure 6M)” value (C57BL/6 mice, CLP sepsis [2]; no exogenous neutrophils, individual mice, event code in next endpoint, 10 mg/kg)?
A: 3 days and 6 days and 10 days and 2 days and 4 days

Q: And the “lung ZBP1 mRNA (Figure 5A)” value (ZBP1; DLL4^+ neutrophils i.v. + CLP)?
A: 2.489 fold change and 2.951 fold change and 0.6537 fold change and 1.296 fold change and 1.101 fold change and 2.543 fold change and 1.904 fold change and 2.345 fold change and 0.6068 fold change and 1.613 fold change and 2.244 fold change and 2.348 fold change and 0.6906 fold change

Q: What about the “effect on lung ZBP1 mRNA” value (ZBP1; DLL4^+ neutrophils/sepsis, 10 mg/kg NDI) of the same molecule?
A: effectively decreased ZBP1 expression

Q: And the “lung ZBP1 mRNA (Figure 5A)” value (ZBP1; DLL4^– neutrophils + CLP)?
A: 3.779 fold change and 3.701 fold change and 3.374 fold change and 2.776 fold change and 2.9508 fold change and 2.383 fold change and 4.109 fold change and 2.422 fold change

Q: And the “effect on c-caspase-3” value (c-caspase-3; 10 μM NDI, DLL4^+ neutrophil coculture)?
A: significantly reduced these markers of PANoptosis

Q: What about the “c/t caspase-3 (Figure 4H)” value (c-caspase-3; DLL4^+ neutrophil coculture) of the same molecule?
A: 0.8975 and 0.9855 and 1.108 and 1.088 and 1.039 and 1.038

Q: What about the “c/t caspase-3 (Figure 4H)” value (c-caspase-3; DLL4^– neutrophil coculture) of the same molecule?
A: 0.9343 and 1.21 and 1.29 and 1.079 and 1.0374 and 1.09

B1: eCIRP: extracellular cold-inducible RNA-binding protein; recombinant murine, produced in our laboratory (protein, UniProt P60824 1-172, looked up)
Cold-inducible RNA-binding …: MASDEGKLFVGGLSFDTNEQALEQVFSKYGQISEVVVVKDRETQRSRGFGFVTFENIDDAKDAMMAMNGKSVDGRQIRVDQAGKSSDNRSRGYRGGSAGGRGFFRGGRSRGRGFSRGGGDRGYGGGRFESRSGGYGGSRDYYASRSQGGSYGYRSSGGSYRDSYDSYATHNE
Q: B1 was tested. Which “effect on DLL3 expression” value (DLL3; BMDNs, eCIRP 1 μg/mL, 12 h) did it give?
A: no significant induction of DLL1 or DLL3

Q: What about the “DLL3 mRNA” value (DLL3; replicate 1) of the same molecule?
A: 0.2832

Q: What about the “DLL3 mRNA” value (DLL3; replicate 2) of the same molecule?
A: 1.673

Q: What about the “DLL3 mRNA” value (DLL3; replicate 3) of the same molecule?
A: 0.009923

Q: What about the “DLL3 mRNA” value (DLL3; replicate 4) of the same molecule?
A: 0.01002

Q: What about the “DLL3 mRNA” value (DLL3; replicate 5) of the same molecule?
A: 0.02772

Q: And the “DLL3 mRNA” value (DLL3; replicate 6)?
A: 0.1715

Q: What about the “effect on DLL4 expression” value (DLL4; BMDNs, eCIRP 1 μg/mL, 12 h) of the same molecule?
A: selectively upregulated DLL4

Q: And the “DLL4 mRNA” value (DLL4; replicate 1)?
A: 2.784

Q: And the “DLL4 mRNA” value (DLL4; replicate 2)?
A: 1.987

Q: What about the “DLL4 mRNA” value (DLL4; replicate 3) of the same molecule?
A: 1.949

Q: What about the “DLL4 mRNA” value (DLL4; replicate 4) of the same molecule?
A: 2.578

Q: What about the “DLL4 mRNA” value (DLL4; replicate 5) of the same molecule?
A: 2.145

Q: What about the “DLL4 mRNA” value (DLL4; replicate 6) of the same molecule?
A: 5.912

Q: And the “DLL4 mRNA” value (DLL4; replicate 7)?
A: 4.801

Q: What about the “DLL4 mRNA” value (DLL4; replicate 8) of the same molecule?
A: 3.122
